This is an account of results in the supplement of paper PMC6755084.

B1: F1*; the commonest letter at each place (parent)
chain: GAGACCGCAACTGAAAAGTTGTTATCACTTGTCGTAAGACACTTTGGATGGGTTGAAGTTCTGCACGTAGAAGCAAAAGGC

In this data set the parent is B1. The experiment in a line: fraction ligated after 30 min (ligated reads / total reads); higher = more ligase activity. Particulars: with F1*sub RNA substrate (template-directed ligation), 42 °C. The gist of the method:
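Templates from an oligo pool were PCR-amplified, transcribed with T7 and gel-purified to give the ribozyme variants. Ligated and unligated products were separated on gel, reverse transcribed using barcoded primers, and read on a MiSeq. A quality filter of ≥20 was applied to core bases. Fraction ligated was taken as ligated reads as a share of all reads per variant.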
With GAGACCGCAACTGAAAAGTTGTTATCACATGGCGTAAGACACTTTGGATGGGTTGAAGTTCTGCACGTAGAAGCAAAAGGC [T29A T32G], the fraction ligated is 0.842.

Regarding GAGACCGCAACTGAAAAGTTGTTATCACATGCCGTAAGACACTTTGGATGGGTTGAAGTTCTGCACGTAGAAGCAAAAGGC [T29A T32C], the fraction ligated came out at 0.774.

Turning to GAGACCGCAACTGAAAAGTTGTTATCACATGTCGTAAGACACTTTGGAAGGGTTGAAGTTCTGCACGTAGAAGCAAAAGGC [T29A T49A], the fraction ligated was 0.784.

With GAGACCGCAACTGAAAAGTTGTTATCACATGTGGTAAGACACTTTGGATGGGTTGAAGTTCTGCACGTAGAAGCAAAAGGC [T29A C33G], the fraction ligated was found to be 0.868.

As for GAGACCGCAACTGAAAAGTTGTTATCACATGTAGTAAGACACTTTGGATGGGTTGAAGTTCTGCACGTAGAAGCAAAAGGC [T29A C33A], the fraction ligated stood at 0.852.

For GAGACCGCAACTGAAAAGTTGTTATCACATGTTGTAAGACACTTTGGATGGGTTGAAGTTCTGCACGTAGAAGCAAAAGGC [T29A C33T], the fraction ligated was determined as 0.859.

For the variant GAGACCGCAACTGAAAAGTTGTTATCACATGTCGTAAGACACTTTGGATGGGTTTAAGTTCTGCACGTAGAAGCAAAAGGC [T29A G55T], the fraction ligated is 0.788.

Regarding GAGACCGCAACTGAAAAGTTGTTATCACATGTCGTAAGACACTTTGGATGGGTTAAAGTTCTGCACGTAGAAGCAAAAGGC [T29A G55A], the fraction ligated stood at 0.84.

Turning to GAGACCGCAACTGAAAAGTTGTTATCACATGTCGTAAGACACTTTGGATGGGTTCAAGTTCTGCACGTAGAAGCAAAAGGC [T29A G55C], the fraction ligated was determined as 0.79.

In the case of GAGACCGCAACTGAAAAGTTGTTATCACATGTCGTTAGACACTTTGGATGGGTTGAAGTTCTGCACGTAGAAGCAAAAGGC [T29A A36T], the fraction ligated is 0.847.

With GAGACCGCAACTGAAAAGTTGTTATCACATGTCGTAAGACACTTTGGATGGGTTGGAGTTCTGCACGTAGAAGCAAAAGGC [T29A A56G], the fraction ligated was 0.789.

For the variant GAGACCGCAACTGAAAAGTTGTTATCACATGTCGTAAGACACTTTGGATGGGTTGCAGTTCTGCACGTAGAAGCAAAAGGC [T29A A56C], the fraction ligated was determined as 0.799.

Consider GAGACCGCAACTGAAAAGTTGTTATCACATGTCGTAAGACACTTTGGATGGGTTGTAGTTCTGCACGTAGAAGCAAAAGGC [T29A A56T], for which the fraction ligated was 0.827.

On to GAGACCGCAACTGAAAAGTTGTTATCACATGTCGTAAGACACTTGGGATGGGTTGAAGTTCTGCACGTAGAAGCAAAAGGC [T29A T45G], for which the fraction ligated was found to be 0.475.

As for GAGACCGCAACTGAAAAGTTGTTATCACATGTCGTAAGACACTTCGGATGGGTTGAAGTTCTGCACGTAGAAGCAAAAGGC [T29A T45C], the fraction ligated was found to be 0.651.

In the case of GAGACCGCAACTGAAAAGTTGTTATCACATGTCGTAAGACACTTAGGATGGGTTGAAGTTCTGCACGTAGAAGCAAAAGGC [T29A T45A], the fraction ligated came out at 0.774.

For GAGACCGCAACTGAAAAGTTGTTATCACATGTCGTAAGACACTTTGTATGGGTTGAAGTTCTGCACGTAGAAGCAAAAGGC [T29A G47T], the fraction ligated was 0.473.

For GAGACCGCAACTGAAAAGTTGTTATCACATGTCGTAAGACACTTTGCATGGGTTGAAGTTCTGCACGTAGAAGCAAAAGGC [T29A G47C], the fraction ligated worked out at 0.249.

As for GAGACCGCAACTGAAAAGTTGTTATCACATGTCGTAAGACACTTTGAATGGGTTGAAGTTCTGCACGTAGAAGCAAAAGGC [T29A G47A], the fraction ligated was determined as 0.804.

In the case of GAGACCGCAACTGAAAAGTTGTTATCACATCTCGTAAGACACTTTGGATGGGTTGAAGTTCTGCACGTAGAAGCAAAAGGC [T29A G31C], the fraction ligated amounted to 0.842.

On to GAGACCGCAACTGAAAAGTTGTTATCACATTTCGTAAGACACTTTGGATGGGTTGAAGTTCTGCACGTAGAAGCAAAAGGC [T29A G31T], for which the fraction ligated worked out at 0.845.

As to GAGACCGCAACTGAAAAGTTGTTATCACATATCGTAAGACACTTTGGATGGGTTGAAGTTCTGCACGTAGAAGCAAAAGGC [T29A G31A], the fraction ligated was 0.844.

Regarding GAGACCGCAACTGAAAAGTTGTTATCACATGTCGTAAGACTCTTTGGATGGGTTGAAGTTCTGCACGTAGAAGCAAAAGGC [T29A A41T], the fraction ligated was 0.827.

GAGACCGCAACTGAAAAGTTGTTATCACATGTCGTAAGACCCTTTGGATGGGTTGAAGTTCTGCACGTAGAAGCAAAAGGC [T29A A41C]: the fraction ligated was determined as 0.801.

Regarding GAGACCGCAACTGAAAAGTTGTTATCACATGTCGTAAGACGCTTTGGATGGGTTGAAGTTCTGCACGTAGAAGCAAAAGGC [T29A A41G], the fraction ligated came out at 0.816.

Regarding GAGACCGCAACTGAAAAGTTGTTATCACATGTCGTAAGAAACTTTGGATGGGTTGAAGTTCTGCACGTAGAAGCAAAAGGC [T29A C40A], the fraction ligated amounted to 0.851.

For GAGACCGCAACTGAAAAGTTGTTATCACATGTCGTAAGAGACTTTGGATGGGTTGAAGTTCTGCACGTAGAAGCAAAAGGC [T29A C40G], the fraction ligated is 0.854.

For the variant GAGACCGCAACTGAAAAGTTGTTATCACATGTCGTAAGATACTTTGGATGGGTTGAAGTTCTGCACGTAGAAGCAAAAGGC [T29A C40T], the fraction ligated came out at 0.857.

As to GAGACCGCAACTGAAAAGTTGTTATCACATGTCGTATGACACTTTGGATGGGTTGAAGTTCTGCACGTAGAAGCAAAAGGC [T29A A37T], the fraction ligated was 0.848.

Consider GAGACCGCAACTGAAAAGTTGTTATCACATGTCGTAGGACACTTTGGATGGGTTGAAGTTCTGCACGTAGAAGCAAAAGGC [T29A A37G], for which the fraction ligated is 0.839.

GAGACCGCAACTGAAAAGTTGTTATCACATGTCGTACGACACTTTGGATGGGTTGAAGTTCTGCACGTAGAAGCAAAAGGC [T29A A37C]: the fraction ligated stood at 0.849.

For GAGACCGCAACTGAAAAGTTGTTATCACATGTCGTAAGACACTTTAGATGGGTTGAAGTTCTGCACGTAGAAGCAAAAGGC [T29A G46A], the fraction ligated was determined as 0.808.

Consider GAGACCGCAACTGAAAAGTTGTTATCACATGTCGTAAGACACTTTCGATGGGTTGAAGTTCTGCACGTAGAAGCAAAAGGC [T29A G46C], for which the fraction ligated is 0.779.

With GAGACCGCAACTGAAAAGTTGTTATCACATGTCGTAAGACACTTTTGATGGGTTGAAGTTCTGCACGTAGAAGCAAAAGGC [T29A G46T], the fraction ligated is 0.793.
